# Assay results: IntAct's records for PubMed 18273060
# B1: Growth factor receptor-bound protein 7 (Mus musculus), Q03160 (parent)
# chain: MELDLSPTHLSSSPEDVCPTPATPPETPPPPDNPPPGDVKRSQPLPIPSSRKLREEEFQATSLPSIPNPFPELCSPPSQKPILGGSSGARGLLPRDSSRLCVVKVYSEDGACRSVEVAAGATARHVCEMLVQRAHALSDESWGLVESHPYLALERGLEDHEFVVEVQEAWPVGGDSRFIFRKNFAKYELFKSPPHTLFPEKMVSSCLDAQTGISHEDLIQNFLNAGSFPEIQGFLQLRGSGRGSGRKLWKRFFCFLRRSGLYYSTKGTSKDPRHLQYVADVNESNVYVVTQGRKLYGMPTDFGFCVKPNKLRNGHKGLHIFCSEDEQSRTCWLAAFRLFKYGVQLYKNYQQAQSRHLRLSYLGSPPLRSVSDNTLVAMDFSGHAGRVIDNPREALSAAMEEAQAWRKKTNHRLSLPTTCSGSSLSAAIHRTQPWFHGRISREESQRLIGQQGLVDGVFLVRESQRNPQGFVLSLCHLQKVKHYLILPSEDEGCLYFSMDEGQTRFTDLLQLVEFHQLNRGILPCLLRHCCARVAL
# Variants of: B1
# Conditions: with elav1_mouse Elavl1, P70372
# Chain of elav1_mouse Elavl1, P70372 (P70372 whole entry): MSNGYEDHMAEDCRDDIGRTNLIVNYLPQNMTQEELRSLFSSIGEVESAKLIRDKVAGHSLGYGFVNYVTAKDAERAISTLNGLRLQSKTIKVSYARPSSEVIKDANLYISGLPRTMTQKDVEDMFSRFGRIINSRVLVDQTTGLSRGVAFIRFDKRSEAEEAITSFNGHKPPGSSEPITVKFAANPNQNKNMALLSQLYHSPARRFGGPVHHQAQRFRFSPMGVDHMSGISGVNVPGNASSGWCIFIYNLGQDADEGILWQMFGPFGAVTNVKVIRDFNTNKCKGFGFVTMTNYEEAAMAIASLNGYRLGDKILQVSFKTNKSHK
row,Variant,effect of a mutation on the interaction
1,Y495F,increasing interaction
